From paper PMC4652225

Tests used:
[1] = molecular target: GST-H1.2 wild type (human) (UniProt P16403); experiment: pull-down; GST-H1.2 attached to glutathione beads, FITC-conjugated H3 peptides in solution; increasing KCl from 100 to 400 mM (Fig. S1A)
[2] = molecular target: Flag-tagged K27-mutated (K27R) H3 (in mononucleosomes) (human) (UniProt P68431); experiment: co-IP; MCF7 cells transfected with Flag-H3 WT or K27R; mononucleosomes by MNase digestion, immunoprecipitated with Flag antibody; Western blot with H1.2 antibody (Fig. 2A)

fold weaker interaction than the H3K27me3 peptide at elevated KCl [1]	fold reduction of the interaction against wild type H3 nucleosomes [2]	Substance
3 fold	–	FITC-conjugated H3K27me0 peptide
3 fold	–	FITC-conjugated H3K27me1 peptide
3 fold	–	FITC-conjugated H3K27me2 peptide
–	2.5 fold	linker histone H1.2 (endogenous) (from UniProt P16403 1-213) (natural protein)
